In patent publication US11198713B2, “Agents modulating beta-catenin functions and methods thereof” (FOG PHARMACEUTICALS, INC., priority 2017, dated 2021):
Values after ≈ are worked out from the molar mass of the structure shown. Read-outs that look alike come from different tables or passages of the source. Numbered stars: 1 amine (or outer) side, 2 acyl side, 3 side chain; on linkers, the order of the positions; unused ones are H or OH. Bridge positions count the residues as written; N and C are the ends. Square brackets hold non-standard residues; d marks the D form. Primed or numbered codes have the meaning given here. Peptide text beside a SMILES is read from it. * marks the point of attachment. MC″ = Monomer C = PyrR, pyrrolidine stapling residue bearing Alloc (allyl carbamate on pyrrolidine N); R6″ = stapling residue, (R)-2-(5-hexenyl)alanine (drawn only), C=CCCCC[C@@](C)(N[*:1])C(=O)[*:2]; MB = Monomer B = PyrS, Alloc-pyrrolidine stapling residue (allyl carbamate on pyrrolidine N); R6 = (R)-2-(5-hexenyl)alanine, C=CCCCC[C@@](C)(N[*:1])C(=O)[*:2]; S6 = (S)-2-(5-hexenyl)alanine, C=CCCCC[C@](C)(N[*:1])C(=O)[*:2]; MB(14) = Monomer B = PyrS, Alloc-pyrrolidine stapling residue; MF = Monomer F (SdN), acyclic alkyl-N(Alloc) stapling residue; dαMeDab(Me) = CN(CC[C@@](C)(N[*:1])C(=O)[*:2])[*:3]; αMeDab(Me) = CN(CC[C@](C)(N[*:1])C(=O)[*:2])[*:3]; Biotin = O=C1N[C@H]2[C@H](CS[C@H]2CCCCC(=O)*)N1; X6 = CN(CC=[*:3])CC[C@](C)(N[*:1])C(=O)[*:2]; X5 = C[C@](CCCCCC=[*:3])(N[*:1])C(=O)[*:2]; PEG3′ = PEG3 linker, CAS# 557756-85-1; X2 = O=C(OCC=CCOC(=O)[*:2])[*:1]; R8 = C=CCCCCCC[C@@](C)(N)C(=O)O; S8 = C=CCCCCCC[C@](C)(N)C(=O)O; R5 = C=CCCC[C@@](C)(N)C(=O)O; S5 = C=CCCC[C@](C)(N)C(=O)O

B1: FP0217rc (peptide)
peptide: AXILDAHIXRVW
modifications: Ac-A-R8-I-L-D-A-H-I-MB-R-V-W-NH2; carbamate staple R8/MB with the olefin reduced to -CH2-CH2-
notes: also called FPO217rc
B2: FP0006a (peptide)
peptide: Ac-PA[MC″]ILDAHV[S8]RVW-NH2
modifications: staple 3-10; also: amino staple: carbamate CO2 extruded after metathesis, staple: amino staple (-N(R')-, CO2 extruded from carbamate staple)
B3: FP0507a (peptide)
peptide: Ac-A[MI]ILDAHI[S6]RVW-NH2
modifications: staple 2-9; also: amino staple MI/S6 (-N(R')-, after CO2 extrusion from carbamate staple), olefin E/Z not given here

Legend:
[1] = target: T1, full-length beta-catenin (Axin site) (Homo sapiens, UniProt P35222); assay: Competition fluorescence polarization assay (Axin site probe); assay type: binding; conditions: competition fluorescence polarization, Table 2; read-out: in vitro FP EC50
T1 construct: 15 nM full-length beta-catenin, 20 nM FITC labeled peptide in buffer
T1 sequence (P35222 1-781): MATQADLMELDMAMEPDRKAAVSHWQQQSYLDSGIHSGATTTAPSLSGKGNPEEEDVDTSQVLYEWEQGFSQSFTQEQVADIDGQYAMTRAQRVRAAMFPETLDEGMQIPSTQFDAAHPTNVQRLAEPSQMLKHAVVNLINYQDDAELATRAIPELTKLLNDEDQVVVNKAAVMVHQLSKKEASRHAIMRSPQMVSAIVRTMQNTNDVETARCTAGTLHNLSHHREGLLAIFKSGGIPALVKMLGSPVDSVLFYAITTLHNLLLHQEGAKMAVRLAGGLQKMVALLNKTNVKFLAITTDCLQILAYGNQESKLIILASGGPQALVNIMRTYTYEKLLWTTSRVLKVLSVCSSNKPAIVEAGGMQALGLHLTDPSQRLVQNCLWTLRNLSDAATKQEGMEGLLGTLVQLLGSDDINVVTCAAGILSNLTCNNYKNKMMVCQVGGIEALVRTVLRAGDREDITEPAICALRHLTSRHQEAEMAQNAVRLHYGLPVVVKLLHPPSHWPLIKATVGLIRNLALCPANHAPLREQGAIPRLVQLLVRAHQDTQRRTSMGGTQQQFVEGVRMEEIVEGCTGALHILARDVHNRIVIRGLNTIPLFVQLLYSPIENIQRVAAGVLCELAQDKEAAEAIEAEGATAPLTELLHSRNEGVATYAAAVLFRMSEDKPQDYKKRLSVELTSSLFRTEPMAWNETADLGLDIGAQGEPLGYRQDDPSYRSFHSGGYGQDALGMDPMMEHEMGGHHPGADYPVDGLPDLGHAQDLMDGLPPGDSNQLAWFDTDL
Procedure, shortened: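 Competition FP: 15 nM full-length β-catenin pre-incubated 5 min with 20 nM FITC-labelled stapled Axin-site peptide, then titrated peptide added (3-fold series from 5 μM) for 15 min in the dark. Buffer 50 mM Tris pH 8.0, 250 mM NaCl, 2% glycerol, 0.5 mM EDTA; duplicate reads.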

[2] = Solubility in DPBS (A280 of supernatant); assay type: physicochemical; conditions: DPBS
Experimental: Suitable assays for assessing solubility are widely known in the art and can be utilized in accordance with the present disclosure. In some embodiments, in an exemplary protocol, dried peptide was reconstituted in DPBS (DPBS, 1×, cell culture grade, Sigma D8537) in triplicate, vortexed, sonicated and then centrifuged. Absorbance of the supernatant was measured at A280 (Nanodrop 2000) and the concentration was determined using the extinction coefficient for tryptophan. Exemplary solubility data are presented in, e.g., Table 2.

full-length beta-catenin = target: T2, full-length beta-catenin (UniProt P35222 2-781, limits assumed); assay: competition FP, grade of FP EC50 (+++: <=100 nM)
T2 construct: mature; also called full-length ß-Catenin; β-catenin
T2 sequence (looked up): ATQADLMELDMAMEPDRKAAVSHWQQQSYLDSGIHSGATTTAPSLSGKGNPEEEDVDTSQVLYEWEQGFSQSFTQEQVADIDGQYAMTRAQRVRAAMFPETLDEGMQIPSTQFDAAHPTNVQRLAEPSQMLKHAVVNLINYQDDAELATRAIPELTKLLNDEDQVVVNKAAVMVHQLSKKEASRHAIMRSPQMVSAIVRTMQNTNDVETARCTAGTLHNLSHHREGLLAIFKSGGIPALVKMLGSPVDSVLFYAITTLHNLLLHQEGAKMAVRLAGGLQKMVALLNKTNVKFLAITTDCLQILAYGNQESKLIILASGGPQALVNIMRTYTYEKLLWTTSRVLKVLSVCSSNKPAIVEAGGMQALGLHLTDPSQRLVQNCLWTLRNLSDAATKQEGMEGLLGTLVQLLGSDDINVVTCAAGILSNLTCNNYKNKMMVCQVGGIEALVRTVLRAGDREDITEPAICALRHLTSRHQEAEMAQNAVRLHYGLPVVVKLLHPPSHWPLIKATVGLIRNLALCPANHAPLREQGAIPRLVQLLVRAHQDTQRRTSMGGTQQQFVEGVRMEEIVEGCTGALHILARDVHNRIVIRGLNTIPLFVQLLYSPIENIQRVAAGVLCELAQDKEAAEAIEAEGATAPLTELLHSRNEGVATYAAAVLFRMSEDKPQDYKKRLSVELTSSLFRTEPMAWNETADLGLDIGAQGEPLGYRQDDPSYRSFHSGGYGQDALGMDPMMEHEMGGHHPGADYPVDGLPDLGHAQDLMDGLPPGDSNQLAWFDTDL
Experimental: In some embodiments, a competition fluorescence polarization assay is used to assess binding of provided compounds to beta-catenin. In an exemplary procedure, solutions of provided compounds, e.g., provided stapled peptides, were prepared in a buffer (e.g., 50 mM Tris pH 8.0, 250 mM NaCl, 2% glycerol, 0.5 mM EDTA, 0.02% w/v sodium azide) using a 3-fold serial dilution from 5 µM. Probe solution (15 nM full-length ß-Catenin, 20 nM FITC labeled peptide in buffer) was prepared and incubated for a period of time, e.g., 5 minutes, and the a volume, e.g., 40 µL per well plated in suitable plate, e.g., a black polystyrene 384-well plate (Corning). Equal volume of the serial diluted peptide was added to the plate and incubated protected from light for 15 minutes prior to read. Reads were performed on a Spectramax M5 (Molecular Devices) in duplicate. Suitable probe was FITC-PEG1-PQ-S5-ILD-S5-HVRRVWR (SEQ ID NO: 1) (hydrocarbon staple formed by two S5 via olefin metathesis) and/or FITC-bA-PQ-S5-ILD-S5-HVRRVWR (SEQ ID NO: 3) (hydrocarbon staple formed by two S5 via olefin metathesis). […] Another peptide, FPO217c (Ac-AR_8ILDAHIM$B5$RVW (SEQ ID NO: 280), with N-terminal proline removed and valine replaced with isoleucine compared to FP0025c) was prepared.

[3] = Table 3 Part A, read-out: Solubility in DPBS

Molecule	FP EC50 (full-length beta-catenin) [nM]	further results
CC[C@H](C)[C@@H]1NC(=O)[C@H](Cc2c[nH]cn2)NC(=O)[C@H](C)NC(=O)[C@H](CC(=O)O)NC(=O)[C@H](CC(C)C)NC(=O)[C@H]([C@@H](C)CC)NC(=O)[C@](C)(NC(=O)[C@H](C)NC(C)=O)CCCCCC=CCN(C)CC[C@@](C)(C(=O)N[C@@H](CCCNC(=N)N)C(=O)N[C@H](C(=O)N[C@@H](Cc2c[nH]c3ccccc23)C(N)=O)C(C)C)NC1=O [FP0503a, Ac-A-R7-I-L-D-A-H-I-MF-R-V-W-NH2] (Ac-A[X5]ILDAHI[X6]RVW-NH2; staple 2-9)	–	EC50 [1]: 100 to 500 nM; solubility ([2]; Table 2, read-out: Solubility): 236 µM (≈ 364 µg/mL); solubility ([2]; Table 3 Part B, amino-stapled product, read-out: Solubility in DPBS): 236 µM (≈ 364 µg/mL)
CC[C@H](C)[C@@H]1NC(=O)[C@H](Cc2c[nH]cn2)NC(=O)[C@H](C)NC(=O)[C@H](CC(=O)O)NC(=O)[C@H](CC(C)C)NC(=O)[C@H]([C@@H](C)CC)NC(=O)[C@](C)(NC(=O)[C@H](C)NC(C)=O)CCCCCC=CCOC(=O)N(C)CC[C@@](C)(C(=O)N[C@@H](CCCNC(=N)N)C(=O)N[C@H](C(=O)N[C@@H](Cc2c[nH]c3ccccc23)C(N)=O)C(C)C)NC1=O [FP0503c, Ac-A-R7-I-L-D-A-H-I-MF-R-V-W-NH2]	–	EC50 [1]: 100 to 500 nM; solubility ([2]; Table 2, read-out: Solubility): 35 µM (≈ 55.5 µg/mL); solubility [2, 3]: 35 µM (≈ 55.5 µg/mL)
CC[C@H](C)[C@@H]1NC(=O)[C@H](Cc2c[nH]cn2)NC(=O)[C@H](C)NC(=O)[C@H](CC(=O)O)NC(=O)[C@H](CC(C)C)NC(=O)[C@H]([C@@H](C)CC)NC(=O)[C@](C)(NC(=O)[C@H](C)NC(C)=O)CCN(C)C(=O)OCC=CCOC(=O)N(C)CC[C@@](C)(C(=O)N[C@@H](CCCNC(=N)N)C(=O)N[C@H](C(=O)N[C@@H](Cc2c[nH]c3ccccc23)C(N)=O)C(C)C)NC1=O [FP0594c, Ac-A-MG-I-L-D-A-H-I-MF-R-V-W-NH2] (Ac-A[dαMeDab(Me)]ILDAHI[αMeDab(Me)]RVW-NH2; linker 2-9 via X2)	–	EC50 [1]: 100 to 500 nM; solubility ([2]; Table 2, read-out: Solubility): 166 µM (≈ 271 µg/mL); solubility [2, 3]: 166 µM (≈ 271 µg/mL)
Ac-A[R5]ILDAHI[MH]RVW-NH2 (staple 2-9; not fully specified; printed as Ac-A-R5-I-L-D-A-H-I-MH-R-V-W-NH2) [FP0510c Isomer 2]	≤ 100	–
AXILDAHIXRVW (not fully specified; Ac-A-MG-I-L-D-A-H-I-MC-R-V-W-NH2; carbamate staple MG/MC) [FP0598c]	≤ 100	–
AXILDAHIXRVW (not fully specified; Ac-A-R5-I-L-D-A-H-I-MH-R-V-W-NH2; carbamate staple R5/MH) [FP0510c Isomer 1]	≤ 100	–
B1	≤ 100	–
AXILDAHIXRVW (not fully specified; Ac-A-MI-I-L-D-A-H-I-MF-R-V-W-NH2; carbamate staple MI/MF) [FP0587c]	≤ 100	–
Ac-A[R6″]ILDAHI[MH]RVW-NH2 (staple 2-9) [FP0511a]	≤ 100	–
AXILDAHIXRVW (not fully specified; Ac-A-MI-I-L-D-A-H-I-MG-R-V-W-NH2; carbamate staple MI/MG) [FP0588c]	≤ 100	–
Ac-A[R6″]ILDAHI[MH]RVW-NH2 (staple 2-9; not fully specified; printed as Ac-A-R6-I-L-D-A-H-I-MH-R-V-W-NH2) [FP0511c Isomer 1]	≤ 100	–
B2	≤ 100	–
Ac-A[MI]ILDAHI[S5]RVW-NH2 (staple 2-9; also: carbamate staple, olefin geometry not assigned) [FP0506c Isomer 2]	≤ 100	–
B3	≤ 100	–
AXILDAHIXRVW (not fully specified; Ac-A-R8-I-L-D-A-H-I-S5-R-V-W-NH2; hydrocarbon staple R8/S5) [FP0217s Isomer 1]	≤ 100	–
AXILDAHIXRVW (not fully specified; Ac-A-ME-I-L-D-A-H-I-MF-R-V-W-NH2; carbamate staple ME/MF) [FP0601c]	≤ 100	–
Ac-A[R8]ILDAHI[MB(14)]RVW-NH2 [FP0217u]	≤ 100	–
Ac-[R8]ILDAHI[MB(14)]RVW-NH2 (staple 1-8) [FP0220c]	≤ 100	–
AXILDAHIXRVW (not fully specified; Ac-A-ME-I-L-D-A-H-I-MB-R-V-W-NH2; carbamate staple ME/MB) [FP0604c]	≤ 100	–
Ac-A[R6]ILDAHI[MF]RVW-NH2 (staple 2-9; also: carbamate staple, isomer 1, olefin geometry not assigned, also called FP0502c (Peak 1)) [FP0502c Isomer 1]	≤ 100	–
Ac-A[R6″]ILDAHI[MH]RVW-NH2 (staple 2-9; not fully specified; printed as Ac-A-R6-I-L-D-A-H-I-MH-R-V-W-NH2) [FP0511c Isomer 2]	≤ 100	–
AXILDAHIXRVW (not fully specified; Ac-A-ME-I-L-D-A-H-I-S8-R-V-W-NH2; carbamate staple ME/S8) [FP0335c Isomer 2]	≤ 100	–
Ac-PA[MC″]ILDAHV[S8]RVW-NH2 (staple 3-10) [FP0005c]	≤ 100	–
{Biotin-PEG3′}-A[R8]ILDAHI[MB]RVW-NH2 (staple 2-9) [FP0217c_btn]	≤ 100	–
AXILDAHIXRVW (not fully specified; Ac-A-R8-I-L-D-A-H-I-S5-R-V-W-NH2; hydrocarbon staple R8/S5) [FP0217s Isomer 2]	≤ 100	–
